Test results reported in paper PMC5959852 (2018).

Molecular target: T1, Hif-1α CAD (Homo sapiens, UniProt Q16665)
T1 chain: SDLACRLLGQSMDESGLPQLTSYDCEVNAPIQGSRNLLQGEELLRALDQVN
Test: stopped-flow

B1: CBP TAZ1 (protein)
chain: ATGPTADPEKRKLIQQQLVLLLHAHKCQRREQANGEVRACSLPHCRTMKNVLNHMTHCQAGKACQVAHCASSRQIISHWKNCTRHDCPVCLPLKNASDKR
- Kd: 3.4 nM
